Assay results as given in patent US10829561B2, “Antibodies targeting quiescin sulfhydryl oxidase (QSOX1) and uses of same” (Yeda Research and Development Co. Ltd., priority 2015, dated 2020).
“Also recorded” adds a separate entry of the source.

Experiments:
[1] = tested on: 4T1 murine mammary carcinoma; assay: Murine 4T1 breast cancer model, tumor volume; type: in vivo, BALB/c female mice; conditions: 8 mg/kg doxorubicin once a week, intraperitoneal, vs control mice
Description: 4T1 mCherry cells were suspended in Hanks' Balanced Salt Solution at a concentration of 2.5×10^6 cells/ml and mixed 1:1 with Cultrex® Basement Membrane Extract. 250,000 cells were injected into the mammary fat pad of 45 BALB/c female mice. Animals were divided into 5 groups containing 9 animals each (as depicted in Table 1B, below). Treatments were administered by intraperitoneal injection, beginning 3 days after cell injection. Tumor dimensions (x,y,z) were measured with a caliper twice a week. Tumor volumes were calculated according to: […]. Animals were weighed once a week. Twenty days post cell injection all animals were sacrificed by CO2 asphyxiation. Tumors and lungs were removed into 4% formaldehyde solution and prepared for histology.
The ability of an antibody inhibiting MmQSOX1 to control tumor growth and metastasis was evaluated in vivo in the 4T1 murine mammary carcinoma breast cancer model previously described [Pulaski and Ostrand-Rosenberg (2001) Mouse 4T1 breast tumor model. Curr. Protoc. Immunol. Chapter 20, Unit 20.2.]. Mice were injected with 4T1 cells together with matrigel, which aided in formation of a localized tumor, and then divided into five groups (as described in Table 1B, above). […] Tumor volumes were measured twice a week. Animals were sacrificed after 20 days, and their tumors and lungs were removed for evaluation.

MmQSOX1 = biological target: T1, MmQSOX1 (Mus musculus, UniProt Q8BND5); assay: Oxygen consumption assay of QSOX1 activity and inhibition (DTT substrate); type: biochemical; conditions: 10:1 molar ratio of antibody to enzyme
T1 construct: Recombinant MmQSOX1 is truncated at the carboxy-terminus and so migrates faster than endogenous secreted MmQSOX1; made in house
T1 sequence (Q8BND5 36-550 limits assumed): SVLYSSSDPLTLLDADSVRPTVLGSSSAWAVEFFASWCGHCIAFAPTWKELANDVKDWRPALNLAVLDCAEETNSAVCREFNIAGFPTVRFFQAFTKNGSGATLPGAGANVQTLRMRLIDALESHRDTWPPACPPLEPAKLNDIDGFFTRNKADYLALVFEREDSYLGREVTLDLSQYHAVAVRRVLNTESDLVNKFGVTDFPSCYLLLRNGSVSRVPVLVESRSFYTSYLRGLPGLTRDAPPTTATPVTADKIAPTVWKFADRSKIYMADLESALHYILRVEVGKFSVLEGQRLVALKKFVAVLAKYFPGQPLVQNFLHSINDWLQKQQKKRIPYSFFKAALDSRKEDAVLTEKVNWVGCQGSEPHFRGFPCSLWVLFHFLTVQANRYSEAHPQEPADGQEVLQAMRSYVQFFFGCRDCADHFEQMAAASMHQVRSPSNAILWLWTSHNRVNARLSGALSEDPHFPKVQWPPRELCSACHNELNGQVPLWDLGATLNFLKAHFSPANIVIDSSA

CpQSOX1 = biological target: T2, CpQSOX1 (Cavia porcellus, UniProt O08841); assay: as above; type: biochemical; conditions: even at 1 μM antibody, 10:1 molar ratio of antibody to enzyme
T2 construct: The CpQSOX1 protein spans residues 34-547 of Cavia porcellus QSOX1; His-tag with thrombin site (inferred from the pET-15b vector, NdeI/BamHI cloning); made in house; host or cells: E. coli
T2 sequence (O08841 34-547): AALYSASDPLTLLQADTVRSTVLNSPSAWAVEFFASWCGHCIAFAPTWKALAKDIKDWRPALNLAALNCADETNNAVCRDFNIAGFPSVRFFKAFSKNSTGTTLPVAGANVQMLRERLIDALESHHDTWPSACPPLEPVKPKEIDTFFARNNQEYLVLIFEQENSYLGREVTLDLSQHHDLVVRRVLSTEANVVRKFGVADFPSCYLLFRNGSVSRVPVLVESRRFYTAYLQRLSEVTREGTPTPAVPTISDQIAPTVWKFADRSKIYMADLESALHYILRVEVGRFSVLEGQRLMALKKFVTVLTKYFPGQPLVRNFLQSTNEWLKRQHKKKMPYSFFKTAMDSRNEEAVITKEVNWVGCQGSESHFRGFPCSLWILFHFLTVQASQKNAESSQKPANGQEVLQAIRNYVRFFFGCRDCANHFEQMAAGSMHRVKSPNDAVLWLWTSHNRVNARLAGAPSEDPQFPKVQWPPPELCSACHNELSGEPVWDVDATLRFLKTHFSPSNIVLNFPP
Description: (§1) Reactions were initiated by DTT injection, and oxygen consumption rates were obtained from initial slopes. […] Measurements were performed 3 times, and resulting rates were averaged. For each mutant, the rate in the presence of inhibitory antibody was divided by the rate in the absence of antibody to get percent activity.
(§2) Three mammalian QSOX1 enzymes, from common experimental organisms and having 78-79% sequence identity with HsQSOX1, were chosen: Mus musculus QSOX1 (MmQSOX1), Rattus norvegicus QSOX1 (RnQSOX1), and Cavia porcellus (CpQSOX1). Enzyme activity was assessed in an oxygen consumption assay on the model substrate dithiothreitol (DTT).

RnQSOX1 = biological target: T3, RnQSOX1 (Rattus norvegicus, UniProt Q6IUU3); assay: as above; type: biochemical; conditions: even at 1 μM antibody, 10:1 molar ratio of antibody to enzyme
T3 construct: made in house
T3 sequence (Q6IUU3 33-750): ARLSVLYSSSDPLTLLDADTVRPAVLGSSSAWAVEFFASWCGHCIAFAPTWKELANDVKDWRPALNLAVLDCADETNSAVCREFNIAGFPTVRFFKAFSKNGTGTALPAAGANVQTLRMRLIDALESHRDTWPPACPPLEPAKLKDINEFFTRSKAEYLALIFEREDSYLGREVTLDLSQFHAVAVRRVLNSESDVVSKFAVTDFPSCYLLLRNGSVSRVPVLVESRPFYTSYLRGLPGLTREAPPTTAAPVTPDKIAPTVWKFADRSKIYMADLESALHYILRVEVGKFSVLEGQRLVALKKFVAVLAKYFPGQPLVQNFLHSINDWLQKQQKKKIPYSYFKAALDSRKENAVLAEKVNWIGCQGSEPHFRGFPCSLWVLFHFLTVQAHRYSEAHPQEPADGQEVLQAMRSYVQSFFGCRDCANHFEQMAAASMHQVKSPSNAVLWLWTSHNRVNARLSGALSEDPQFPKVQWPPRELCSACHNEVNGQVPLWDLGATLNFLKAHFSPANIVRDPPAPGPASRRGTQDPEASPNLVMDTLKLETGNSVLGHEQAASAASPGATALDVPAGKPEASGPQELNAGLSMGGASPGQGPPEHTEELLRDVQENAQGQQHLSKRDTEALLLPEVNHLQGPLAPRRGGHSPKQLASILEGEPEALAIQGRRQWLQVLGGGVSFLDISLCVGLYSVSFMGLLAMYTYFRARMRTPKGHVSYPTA
Description: as §1, §2

MmQSOX1 A116P mutant = biological target: T4, MmQSOX1 A116P mutant (Mus musculus, UniProt Q8BND5); assay: Oxygen consumption assay, MmQSOX1 mutant mimicking HsQSOX1; type: biochemical; conditions: 250 nM MAb492.1, 200 μM DTT
T4 construct: made in house
T4 sequence (Q8BND5 36-550 A119P limits assumed): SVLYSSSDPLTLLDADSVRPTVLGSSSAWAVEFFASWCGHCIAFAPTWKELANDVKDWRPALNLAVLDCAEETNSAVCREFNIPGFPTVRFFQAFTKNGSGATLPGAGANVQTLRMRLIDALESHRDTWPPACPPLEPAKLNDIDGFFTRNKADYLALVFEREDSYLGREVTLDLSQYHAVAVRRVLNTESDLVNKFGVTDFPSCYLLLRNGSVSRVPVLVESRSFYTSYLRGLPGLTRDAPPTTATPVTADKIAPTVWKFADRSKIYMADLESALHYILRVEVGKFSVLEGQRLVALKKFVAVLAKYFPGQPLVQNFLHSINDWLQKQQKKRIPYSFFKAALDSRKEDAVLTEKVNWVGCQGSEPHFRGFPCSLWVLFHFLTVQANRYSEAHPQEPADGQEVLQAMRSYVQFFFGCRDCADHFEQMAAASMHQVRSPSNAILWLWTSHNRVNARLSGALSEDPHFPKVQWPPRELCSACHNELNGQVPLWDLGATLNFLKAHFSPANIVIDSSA
Description: as §1
(§3) The first mutant, A116P, was inhibited by about 60% (FIG. 2D), and the second mutant, TLPG(138-141)VFPV, by about 50%.

[2] = biological target: T5, MmQSOX1 TLPG(138-141)VFPV mutant (Mus musculus, UniProt Q8BND5, G141V/L139F/T138V); assay: as above; type: biochemical; conditions: 250 nM MAb492.1, 200 μM DTT
T5 construct: made in house
T5 sequence (Q8BND5 36-550 T138V/L139F/G141V limits assumed): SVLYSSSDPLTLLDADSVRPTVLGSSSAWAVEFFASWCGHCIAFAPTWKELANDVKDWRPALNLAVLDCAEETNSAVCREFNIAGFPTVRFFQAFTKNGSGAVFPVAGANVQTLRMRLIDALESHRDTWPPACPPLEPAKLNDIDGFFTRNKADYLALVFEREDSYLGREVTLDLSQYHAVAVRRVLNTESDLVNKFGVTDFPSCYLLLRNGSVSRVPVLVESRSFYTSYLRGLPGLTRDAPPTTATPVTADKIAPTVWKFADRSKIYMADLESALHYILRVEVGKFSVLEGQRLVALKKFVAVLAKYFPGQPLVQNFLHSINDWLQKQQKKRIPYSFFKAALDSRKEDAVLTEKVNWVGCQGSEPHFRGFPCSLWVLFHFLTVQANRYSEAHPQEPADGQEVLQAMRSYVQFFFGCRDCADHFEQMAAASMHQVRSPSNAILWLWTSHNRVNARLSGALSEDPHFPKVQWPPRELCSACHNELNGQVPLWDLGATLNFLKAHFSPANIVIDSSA
Description: as §1, §3

[3] = tested on: mouse embryonic fibroblasts (MEFs); assay: Laminin immunostaining in mouse fibroblast cultures; type: cell-based; conditions: MEFs grown for three days in the presence of antibody
Description: (§4) The assays were conducted essentially as previously described [Ilani T. et al. (2013), supra]. Instead of human fibroblasts, mouse fibroblasts were grown for three days in the presence of various antibodies. HEK 293T cells were used as adhering cells.
(§5) QSOX1 and laminin are secreted from quiescent fibroblasts into the ECM, where QSOX1 promotes laminin incorporation, and consequently the adherence of epithelial cells to the fibroblast monolayer. Thus, intact laminin networks in the ECM and cell adherence indicate functional QSOX1 activity in the ECM [Ilani T. et al. (2013), supra]. Inventors first verified that MmQSOX1 is secreted from confluent mouse embryonic fibroblasts (MEFs) (FIG. 4A). Next, extracellular laminin secreted by MEFs grown for three days in the presence of MAb492.1, MAb316.1, or MAb492gen was stained. […] A quantitative assay of epithelial cell adhesion to MEF monolayers was performed next. Fluorescently labeled epithelial cells were added to MEFs grown in the absence or presence of the antibodies, and adherent cells were quantified.

[4] = tested on: mouse embryonic fibroblasts (MEFs); assay: Epithelial cell adhesion to mouse fibroblast monolayer; type: cell-based; conditions: 250 nM or 1 μM antibody; HEK 293T adhering cells
Description: as §4, §5

HsQSOX1 = biological target: T6, HsQSOX1 (Homo sapiens, UniProt O00391); conditions: Grossman I. et al. (2013); cited from earlier work
T6 construct: made in house
T6 sequence (O00391 33-546 limits assumed): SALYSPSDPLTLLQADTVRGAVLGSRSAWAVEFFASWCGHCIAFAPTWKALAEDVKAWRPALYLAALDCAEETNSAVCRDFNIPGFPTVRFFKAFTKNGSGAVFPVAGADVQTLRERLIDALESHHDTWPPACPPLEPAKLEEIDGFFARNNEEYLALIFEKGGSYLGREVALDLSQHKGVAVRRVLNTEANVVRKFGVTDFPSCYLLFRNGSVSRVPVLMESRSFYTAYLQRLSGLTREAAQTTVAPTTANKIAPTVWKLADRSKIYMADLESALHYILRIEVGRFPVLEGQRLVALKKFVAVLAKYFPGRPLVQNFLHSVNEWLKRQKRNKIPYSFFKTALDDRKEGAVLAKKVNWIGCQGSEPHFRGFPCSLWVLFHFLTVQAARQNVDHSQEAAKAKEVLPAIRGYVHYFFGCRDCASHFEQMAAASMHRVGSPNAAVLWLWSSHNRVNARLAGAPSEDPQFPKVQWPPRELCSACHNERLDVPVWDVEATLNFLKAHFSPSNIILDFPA

COc1cccc2c1C(=O)c1c(O)c3c(c(O)c1C2=O)C[C@@](O)(C(=O)CO)C[C@@H]3O[C@H]1C[C@H](N)[C@H](O)[C@H](C)O1 [doxorubicin, reference compound]
Tumor volume [1]: smaller tumors than control mice

B1: MAb492.1: previously published inhibitory monoclonal antibody blocking the Trx CXXC redox-active site of human QSOX1 (antibody, V domains shown)
VL: DVVMTQTHKFMSTSVGDRVSITCKASQDVSTAVAWYQQKSGQSPKLLIHSASYRYTGVPDRFTGSGSGTDFTFTISSVQAEDLAVYYCQQHYSIPLTFGAGTKLELK
VH: QVQLKQSGPGLVAPSQSLSITCTVSGFSLTGYGVNWVRQSPGKGLEWLGMIWGDGRTDYKSALKSRLSITKDNSKSQVFLKMNSLQTDDTARYFCASDYYGSGSFAYWGQGTLVTVSA
Inhibition of MmQSOX1 at 1 μM antibody (MmQSOX1): no effect; also recorded: No inhibition at 1 μM | Effect on CpQSOX1 activity (CpQSOX1): no effect | Effect on RnQSOX1 activity (RnQSOX1): no effect | Inhibition of MmQSOX1 A116P mutant (MmQSOX1 A116P mutant): about 60% | Inhibition of MmQSOX1 TLPG(138-141)VFPV mutant [2]: about 50% | Laminin network in ECM [3]: did not affect | Epithelial cell adherence to MEF monolayer [4]: did not affect | Concentration inhibiting HsQSOX1 activity in vitro and in cell culture (HsQSOX1): near-stoichiometric concentration
